Patent US20250186489A1, “REPROGRAMMING OF CELLS TO TYPE 1 CONVENTIONAL DENDRITIC CELLS OR ANTIGEN-PRESENTING CELLS” (Asgard Therapeutics AB, priority 2021, published 2025)

Tested on: human embryonic fibroblasts (HEF)
Assay: cDC1 reprogramming efficiency of human embryonic fibroblasts, flow cytometry for CD45+HLA-DR+ cells at day 9
Assay type: cell-based
Settings: for effect on cDC1 reprogramming efficiency when co-expressed with PU.1, IRF8 and BATF3: HEF co-transduced with TetO-PIB, M2rtTA and the individual factor
Procedure: HEFs, HDFs and Clec9a-tdTomato MEFs were seeded at a density of 40,000 cells per well and MSCs at a density of 50,000 cells per well on 0.1% gelatin coated 6-well plates. On the following day, cells were incubated overnight with either a ratio of 1:1 TetO-PIB and M2rtTA, SFFV-PIB-GFP or SFFV-GFP lentiviral particles in media supplemented with 8 μg/ml polybrene. Cells were transduced overnight twice in consecutive days and media replaced in between. After the second transduction, media was replaced by normal growth media (day 0). When using TetO-PIB, media was supplemented with Dox (1 μg/ml). Media was changed every 2-3 days for the duration of cultures. When stated, media was supplemented with LPS (100 ng/ml, Enzo), Poly I:C (25 μg/ml, InvivoGen) and R848 (3 μg/ml, InvivoGen) overnight. Cytokines were added at day 2 and kept for the duration of cultures; For reprogramming in xeno-free conditions, MSCs were cultured in X-Vivo 15 (Lonza) after transduction and media changed every 2-3 days for the duration of cultures.
For the analysis of surface marker expression, human and mouse cells were dissociated and incubated with antibodies diluted in PBS 5% FBS at 4° C. for 30 minutes in the presence of mouse or rat serum (1/100, GeneTex), for human and mouse cells respectively, to block unspecific binding. Cells were washed and resuspended in PBS 5% FBS and analyzed in BD FACSCanto II or BD LSRFortessa flow cytometers (BD Biosciences), unless stated otherwise. DAPI was used for dead cell exclusion. Flow cytometry data were analyzed using FlowJo software (FLOWJO, LLC, version 10.6.1). All flow cytometry analyses were performed in live single cell gates.
Coding regions of ID2, TXNIP, ZFP36, PLEK, SUB1, JUNB, CREM, KLF4, MXD1, LITAF, IRF7, FOS, NMI, TFEC, SP110, IRF5, STAT2, BATF, ZNF267, IRF1, RELB and BATF2 were individually cloned in the pFUW-TetO plasmid. […] Reprogramming efficiency was evaluated by flow cytometry in HEFs 9 days after transcription factor overexpression.
17 human hematopoietic cytokines including inflammatory mediators (Table 3) were individually added to the culture media 2 days after PIB induction in HEFs, and reprogramming efficiency was measured at day 9. Changes in reprogramming efficiency were analysed using both single cytokines and combinations of two or three cytokines.
The impact on reprogramming efficiency after a combination of cytokine treatment and SFFV-driven PIB induction was evaluated. The scPred system was used for integration with “natural” DCs. See previous Examples for experimental details.

[1] = HEF with Dox-inducible PIB, individual cytokine
[2] = HEF with SFFV-PIB in the presence of anti-inflammatory cytokine

Molecule: GM-CSF: cytokine
- impact on reprogramming efficiency [1]: did not impact reprogramming efficiency

Molecule: IL-1β: cytokine
- fold increase in reprogramming efficiency versus condition without cytokines (HEF with Dox-inducible PIB): 3 fold

Molecule: IL-6: cytokine
- fold increase in reprogramming efficiency versus condition without cytokines (HEF with Dox-inducible PIB): 2.5 fold

Molecule: TGF-β
- fold reduction of reprogramming efficiency [2]: 2 fold
- impact on CD40 expression in hiDCs [2]: did not impact CD40 expression

Molecule: TNF-α
- fold increase in reprogramming efficiency versus condition without cytokines (HEF with Dox-inducible PIB): 3 fold

B1: IL-10: anti-inflammatory cytokine (protein, UniProt P22301 19-178, looked up)
Interleukin-10: SPGQGTQSENSCTHFPGNLPNMLRDLRDAFSRVKTFFQMKDQLDNLLLKESLLEDFKGYLGCQALSEMIQFYLEEVMPQAENQDPDIKAHVNSLGENLKTLRLRLRRCHRFLPCENKSKAVEQVKNAFNKLQEKGIYKAMSEFDIFINYIEAYMTMKIRN
- impact on CD40 expression in hiDCs [2]: did not impact CD40 expression
- impact on reprogramming efficiency [2]: did not impact reprogramming efficiency

B2: IL-4: cytokine (protein, UniProt P05112 25-153, looked up)
Interleukin-4: HKCDITLQEIIKTLNSLTEQKTLCTELTVTDIFAASKNTTEKETFCRAATVLRQFYSHHEKDTRCLGATAQQFHRHKQLIRFLKRLDRNLWGLAGLNSCPVKEANQSTLENFLERLKTIMREKYSKCSS
- impact on reprogramming efficiency [1]: did not impact reprogramming efficiency

B3: IRF7: transcription factor of the interferon regulatory factor family, SEQ ID NO: 21 (protein, listed as Homo sapiens)
chain: MPVPERPAAGPDSPRPGTRRAAPRVLFGEWLLGEISSGCYEGLQWLDEARTCFRVPWKHFARKDLSEADARIFKAWAVARGRWPPSSRGGGPPPEAETAERAGWKTNFRCALRSTRRFVMLRDNSGDPADPHKVYALSRELCWREGPGTDQTEAEAPAAVPPPQGGPPGPFLAHTHAGLQAPGPLPAPAGDKGDLLLQAVQQSCLADHLLTASWGADPVPTKAPGEGQEGLPLTGACAGGPGLPAGELYGWAVETTPSPGPQPAALTTGEAAAPESPHQAEPYLSPSPSACTAVQEPSPGALDVTIMYKGRTVLQKVVGHPSCTFLYGPPDPAVRATDPQQVAFPSPAELPDQKQLRYTEELLRHVAPGLHLELRGPQLWARRMGKCKVYWEVGGPPGSASPSTPACLLPRNCDTPIFDFRVFFQELVEFRARQRRGSPRYTIYLGFGQDLSAGRPKEKSLVLVKLEPWLCRVHLEGTQREGVSSLDSSSLSLCLSSANSLYDDIECFLMELEQPA
modifications: Interferon regulatory factor 7 [Homo sapiens], peptide sequence
- effect on cDC1 reprogramming efficiency when co-expressed with PU.1, IRF8 and BATF3: increased cDC1 reprogramming efficiency

B4: FLT3L: cytokine (protein, UniProt P49771 27-235, looked up)
Fms-related tyrosine kinase 3 …: TQDCSFQHSPISSDFAVKIRELSDYLLQDYPVTVASNLQDEELCGGLWRLVLAQRWMERLKTVAGSKMQGLLERVNTEIHFVTKCAFQPPPSCLRFVQTNISRLLQETSEQLVALKPWITRQNFSRCLELQCQPDSSTLPPPWSPRPLEATAPTAPQPPLLLLLLLPVGLLLLAAAWCLHWQRTRRRTPRPGEQVPPVPSPQDLLLVEH
- impact on reprogramming efficiency [1]: did not impact reprogramming efficiency

B5: BATF: nuclear basic leucine zipper transcription factor, SEQ ID NO: 19 (protein, listed as Homo sapiens)
chain: MPHSSDSSDSSFSRSPPPGKQDSSDDVRRVQRREKNRIAAQKSRQRQTQKADTLHLESEDLEKQNAALRKEIKQLTEELKYFTSVLNSHEPLCSVLAASTPSPPEVVYSAHAFHQPHVSSPRFQP
modifications: basic leucine zipper transcriptional factor ATF-like [Homo sapiens], peptide sequence
- effect on cDC1 reprogramming efficiency when co-expressed with PU.1, IRF8 and BATF3: increased cDC1 reprogramming efficiency

B6: Oncostatin M: cytokine (protein, UniProt P13725 26-221, looked up)
Oncostatin-M: AAIGSCSKEYRVLLGQLQKQTDLMQDTSRLLDPYIRIQGLDVPKLREHCRERPGAFPSEETLRGLGRRGFLQTLNATLGCVLHRLADLEQRLPKAQDLERSGLNIEDLEKLQMARPNILGLRNNIYCMAQLLDNSDTAEPTKAGRGASQPPTPTPASDAFQRKLEGCRFLHGYHRFMHSVGRVFSKWGESPNRSRR
- fold increase in reprogramming efficiency versus condition without cytokines (HEF with Dox-inducible PIB): 4 fold
